Test results taken from publication PMC314469, “Protein Interaction Networks by Proteome Peptide Scanning” (PLoS Biology, 2004).

Experiments:
Assay in all cases: SPOT array
[1] = molecular target: T1, Boi1 SH3 (BOI1_YEAST), P38041
T1 chain: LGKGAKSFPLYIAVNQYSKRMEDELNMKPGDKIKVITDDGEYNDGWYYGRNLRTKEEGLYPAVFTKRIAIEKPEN

[2] = molecular target: T2, Yhr016c SH3 (YSC84_YEAST), P32793
T2 chain: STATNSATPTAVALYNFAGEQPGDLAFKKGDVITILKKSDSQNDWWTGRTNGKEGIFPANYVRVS

[3] = molecular target: T3, Boi2 SH3 (BOI2_YEAST), P39969
T3 chain: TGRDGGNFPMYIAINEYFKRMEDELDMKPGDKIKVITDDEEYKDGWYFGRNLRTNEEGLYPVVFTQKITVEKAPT

[4] = molecular target: T4, Rvs167 SH3 (RV167_YEAST), P39743
T4 chain: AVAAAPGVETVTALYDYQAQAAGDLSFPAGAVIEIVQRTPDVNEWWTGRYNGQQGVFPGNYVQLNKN

[5] = molecular target: T5, Yfr024 SH3 (LSB3_YEAST), P43603
T5 chain: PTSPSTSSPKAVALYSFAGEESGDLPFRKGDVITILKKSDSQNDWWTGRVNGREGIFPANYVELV

B1: YPL093W 387-400 (peptide)
chain: KYDPEDPNRRKLAR
normalised SPOT signal, Boehringer light units (BLU); mean over the file's lines of this peptide [1]: 310 | normalised SPOT signal, Boehringer light units (BLU); mean over the file's lines of this peptide [2]: 172 | normalised SPOT signal, Boehringer light units (BLU); mean over the file's lines of this peptide [3]: 15.7 | normalised SPOT signal, Boehringer light units (BLU); mean over the file's lines of this peptide [4]: 30.9 | normalised SPOT signal, Boehringer light units (BLU); mean over the file's lines of this peptide [5]: 222

B2: YNL020C 606-619 (peptide)
chain: KTKPTPPPKPSHLK
normalised SPOT signal, Boehringer light units (BLU); mean over the file's lines of this peptide [1]: 153 | normalised SPOT signal, Boehringer light units (BLU); mean over the file's lines of this peptide [2]: 236 | normalised SPOT signal, Boehringer light units (BLU); mean over the file's lines of this peptide [3]: 71.3 | normalised SPOT signal, Boehringer light units (BLU); mean over the file's lines of this peptide [4]: 8.2 | normalised SPOT signal, Boehringer light units (BLU); mean over the file's lines of this peptide [5]: 16700

B3: YIL161W 160-173 (peptide)
chain: LDYPKAPIKLTMKS
normalised SPOT signal, Boehringer light units (BLU); mean over the file's lines of this peptide [1]: 48 | normalised SPOT signal, Boehringer light units (BLU); mean over the file's lines of this peptide [2]: 344 | normalised SPOT signal, Boehringer light units (BLU); mean over the file's lines of this peptide [3]: 12.9 | normalised SPOT signal, Boehringer light units (BLU); mean over the file's lines of this peptide [4]: 5.9 | normalised SPOT signal, Boehringer light units (BLU); mean over the file's lines of this peptide [5]: 538

B4: YDR425W 253-266 (peptide)
chain: LAPPLSPTKPSPLH
normalised SPOT signal, Boehringer light units (BLU); mean over the file's lines of this peptide [1]: 81.4 | normalised SPOT signal, Boehringer light units (BLU); mean over the file's lines of this peptide [2]: 77.1 | normalised SPOT signal, Boehringer light units (BLU); mean over the file's lines of this peptide [3]: 6.5 | normalised SPOT signal, Boehringer light units (BLU); mean over the file's lines of this peptide [4]: 30.7 | normalised SPOT signal, Boehringer light units (BLU); mean over the file's lines of this peptide [5]: 111

B5: YLR460C 166-179 (peptide)
chain: KWEPSTPQRKGPIL
normalised SPOT signal, Boehringer light units (BLU); mean over the file's lines of this peptide [1]: 1870 | normalised SPOT signal, Boehringer light units (BLU); mean over the file's lines of this peptide [2]: 603 | normalised SPOT signal, Boehringer light units (BLU); mean over the file's lines of this peptide [3]: 43 | normalised SPOT signal, Boehringer light units (BLU); mean over the file's lines of this peptide [4]: 51.1 | normalised SPOT signal, Boehringer light units (BLU); mean over the file's lines of this peptide [5]: 2430

B6: YKL010C 724-737 (peptide)
chain: LENPSTPDKTEEDW
normalised SPOT signal, Boehringer light units (BLU); mean over the file's lines of this peptide [1]: 50.1 | normalised SPOT signal, Boehringer light units (BLU); mean over the file's lines of this peptide [2]: 68.6 | normalised SPOT signal, Boehringer light units (BLU); mean over the file's lines of this peptide [3]: 52.1 | normalised SPOT signal, Boehringer light units (BLU); mean over the file's lines of this peptide [4]: 27.7 | normalised SPOT signal, Boehringer light units (BLU); mean over the file's lines of this peptide [5]: 61

B7: YMR108W 66-79 (peptide)
chain: LEQPAEPSKLAKKL
normalised SPOT signal, Boehringer light units (BLU); mean over the file's lines of this peptide [1]: 86.5 | normalised SPOT signal, Boehringer light units (BLU); mean over the file's lines of this peptide [2]: 96.5 | normalised SPOT signal, Boehringer light units (BLU); mean over the file's lines of this peptide [3]: 37.3 | normalised SPOT signal, Boehringer light units (BLU); mean over the file's lines of this peptide [4]: 8.3 | normalised SPOT signal, Boehringer light units (BLU); mean over the file's lines of this peptide [5]: 19.3

B8: YDR128W 52-65 (peptide)
chain: LDDPFTPPRWLHHI
normalised SPOT signal, Boehringer light units (BLU); mean over the file's lines of this peptide [1]: 423 | normalised SPOT signal, Boehringer light units (BLU); mean over the file's lines of this peptide [2]: 708 | normalised SPOT signal, Boehringer light units (BLU); mean over the file's lines of this peptide [3]: 38.5 | normalised SPOT signal, Boehringer light units (BLU); mean over the file's lines of this peptide [4]: 89 | normalised SPOT signal, Boehringer light units (BLU); mean over the file's lines of this peptide [5]: 3400

B9: YCR087W 13-26 (peptide)
chain: LSIPDLPLRIHNQT
normalised SPOT signal, Boehringer light units (BLU); mean over the file's lines of this peptide [1]: 69.2 | normalised SPOT signal, Boehringer light units (BLU); mean over the file's lines of this peptide [2]: 31200 | normalised SPOT signal, Boehringer light units (BLU); mean over the file's lines of this peptide [3]: 35.3 | normalised SPOT signal, Boehringer light units (BLU); mean over the file's lines of this peptide [4]: 2710 | normalised SPOT signal, Boehringer light units (BLU); mean over the file's lines of this peptide [5]: 25400

B10: YKL139W 32-45 (peptide)
chain: LARPPPPKRIRTDS
normalised SPOT signal, Boehringer light units (BLU); mean over the file's lines of this peptide [1]: 528 | normalised SPOT signal, Boehringer light units (BLU); mean over the file's lines of this peptide [2]: 3210 | normalised SPOT signal, Boehringer light units (BLU); mean over the file's lines of this peptide [3]: 70.2 | normalised SPOT signal, Boehringer light units (BLU); mean over the file's lines of this peptide [4]: 1260 | normalised SPOT signal, Boehringer light units (BLU); mean over the file's lines of this peptide [5]: 15700

B11: YJR117W 8-21 (peptide)
chain: LDHPNIPWKLIISG
normalised SPOT signal, Boehringer light units (BLU); mean over the file's lines of this peptide [1]: 76.1 | normalised SPOT signal, Boehringer light units (BLU); mean over the file's lines of this peptide [2]: 150 | normalised SPOT signal, Boehringer light units (BLU); mean over the file's lines of this peptide [3]: 35.2 | normalised SPOT signal, Boehringer light units (BLU); mean over the file's lines of this peptide [4]: 7.6 | normalised SPOT signal, Boehringer light units (BLU); mean over the file's lines of this peptide [5]: 7.9

B12: YCR102C 158-171 (peptide)
chain: KWEPSTPQRNGPIL
normalised SPOT signal, Boehringer light units (BLU); mean over the file's lines of this peptide [1]: 143 | normalised SPOT signal, Boehringer light units (BLU); mean over the file's lines of this peptide [2]: 1620 | normalised SPOT signal, Boehringer light units (BLU); mean over the file's lines of this peptide [3]: 31.6 | normalised SPOT signal, Boehringer light units (BLU); mean over the file's lines of this peptide [4]: 31.1 | normalised SPOT signal, Boehringer light units (BLU); mean over the file's lines of this peptide [5]: 3400

B13: YOR058C 193-206 (peptide)
chain: KTVPQSPKKPLSLL
normalised SPOT signal, Boehringer light units (BLU); mean over the file's lines of this peptide [1]: 101 | normalised SPOT signal, Boehringer light units (BLU); mean over the file's lines of this peptide [2]: 192 | normalised SPOT signal, Boehringer light units (BLU); mean over the file's lines of this peptide [3]: 53.9 | normalised SPOT signal, Boehringer light units (BLU); mean over the file's lines of this peptide [4]: 17.8 | normalised SPOT signal, Boehringer light units (BLU); mean over the file's lines of this peptide [5]: 280

B14: YPR171W 354-367 (peptide)
chain: KTKPSIPPKKVELN
normalised SPOT signal, Boehringer light units (BLU); mean over the file's lines of this peptide [1]: 46 | normalised SPOT signal, Boehringer light units (BLU); mean over the file's lines of this peptide [2]: 133 | normalised SPOT signal, Boehringer light units (BLU); mean over the file's lines of this peptide [3]: 34.8 | normalised SPOT signal, Boehringer light units (BLU); mean over the file's lines of this peptide [4]: 27.4 | normalised SPOT signal, Boehringer light units (BLU); mean over the file's lines of this peptide [5]: 1930

B15: YLR143W 388-401 (peptide)
chain: KYGPLPPSRASVGS
normalised SPOT signal, Boehringer light units (BLU); mean over the file's lines of this peptide [1]: 551 | normalised SPOT signal, Boehringer light units (BLU); mean over the file's lines of this peptide [2]: 488 | normalised SPOT signal, Boehringer light units (BLU); mean over the file's lines of this peptide [3]: 41.5 | normalised SPOT signal, Boehringer light units (BLU); mean over the file's lines of this peptide [4]: 65.7 | normalised SPOT signal, Boehringer light units (BLU); mean over the file's lines of this peptide [5]: 2010

B16: YBR235W 52-65 (peptide)
chain: KYDPDNPNKDKLGT
normalised SPOT signal, Boehringer light units (BLU); mean over the file's lines of this peptide [1]: 146 | normalised SPOT signal, Boehringer light units (BLU); mean over the file's lines of this peptide [2]: 266 | normalised SPOT signal, Boehringer light units (BLU); mean over the file's lines of this peptide [3]: 66.7 | normalised SPOT signal, Boehringer light units (BLU); mean over the file's lines of this peptide [4]: 48.2 | normalised SPOT signal, Boehringer light units (BLU); mean over the file's lines of this peptide [5]: 20.9

B17: YMR192W 159-172 (peptide)
chain: LDRPQLPPRQVVNA
normalised SPOT signal, Boehringer light units (BLU); mean over the file's lines of this peptide [1]: 143 | normalised SPOT signal, Boehringer light units (BLU); mean over the file's lines of this peptide [2]: 29100 | normalised SPOT signal, Boehringer light units (BLU); mean over the file's lines of this peptide [3]: 31.9 | normalised SPOT signal, Boehringer light units (BLU); mean over the file's lines of this peptide [4]: 25900 | normalised SPOT signal, Boehringer light units (BLU); mean over the file's lines of this peptide [5]: 14400
